These results are taken from the supplement of paper PMC7877785.

The nature of the data set: self-splicing fitness, log relative to wild type (ln ratio); higher = more splicing; Tetrahymena group I intron in knt gene, E. coli kanamycin selection, DiMSum; sequences stand for … in CUCUCU…GGAGGGAAAAGUUAUCAGGCAUGCACCUGGUAGCUAGUCUUUAAACCAAUAGAUUGCAUCGGUUUAAAAGGCAAGACCGUCAAAUUGCGGGAAAGGGGUCAACAGCCGUUCAGUACCAAGUCUCAGGGGAAACUUUGAGAUGGCCUUGCAAAGGGUAUGGUAAUAAGCUGACGGACAUGGUCCUAACCACGCAGCCAAGUCCUAAGUCAACAGAUCUUCUGUUGAUAUGGAUGCAGUUCACAGACUAAAUGUCGGUCGGGGAAGAUGUAUUCUUCUCAUAAGAUAUAGUCGGACCUCUCCUUAAUGGGAGCUAGCGGAUGAAGUGAUGCAACACUGGAGCCGCUGGGAACUAAUUUGUAUGCGAAAGUAUAUUGAUUAGUUUUGGAGUACUCGUGGUCG
The method in brief:
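Six replicate transformations of E. coli BL21(DE3) with a pET-22b(+) library were grown overnight at 37°C or 30°C. The library randomised all eight P1ex-region intron nucleotides, the intron lying in the knt kanamycin-resistance gene, and plates were LB agar with or without 25 μg/mL kanamycin plus 100 μg/mL carbenicillin, 50 μM IPTG and 0.2% rhamnose. Pooled colonies were amplicon-sequenced on an Illumina HiSeq 2500, and fitness is the DiMSum error-weighted combination of wild-type-normalised replicate fold changes, kanamycin versus none.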

± gives the uncertainty stated by the source.

For the sequence UAGCAGCAAUAUUACGAACU, the “self-splicing fitness (ln)” value by setting is: (30 °C) -0.336 ± 0.18; (37 °C) 0.618 ± 0.14.

GUCUAGCAAUAUUACGUAUG: the “self-splicing fitness (ln)” value runs as follows: (30 °C) -2.94 ± 0.18; (37 °C) -0.896 ± 0.13.

In the case of ACCAAGCAAUAUUACGAUGC, the “self-splicing fitness (ln)” value runs as follows: (30 °C) -2.45 ± 0.088; (37 °C) -0.944 ± 0.11.

As to CUACAGCAAUAUUACGGAUA, the “self-splicing fitness (ln)” value is -3.45 ± 0.14 (30 °C) and -3.2 ± 0.16 (37 °C).

Regarding AGCCAGCAAUAUUACGCGAA, the “self-splicing fitness (ln)” value reads like this: (30 °C) -0.797 ± 0.26; (37 °C) -2.79 ± 0.38.

In the case of CUGAAGCAAUAUUACGCUUA, the “self-splicing fitness (ln)” value by setting is: (30 °C) -3.82 ± 0.3; (37 °C) -2.13 ± 0.23.

For UUAUAGCAAUAUUACGACGG, the “self-splicing fitness (ln)” value is -0.906 ± 0.11 (30 °C) and -0.144 ± 0.16 (37 °C).

For GUAGAGCAAUAUUACGCGUU, the “self-splicing fitness (ln)” value runs as follows: (30 °C) -0.368 ± 0.065; (37 °C) -0.909 ± 0.11.

Regarding CCGCAGCAAUAUUACGGUCA, the “self-splicing fitness (ln)” value runs as follows: (30 °C) -3.47 ± 0.29; (37 °C) -2.46 ± 0.3.

Regarding GACAAGCAAUAUUACGGUGG, the “self-splicing fitness (ln)” value by setting is: (30 °C) -2.01 ± 0.066; (37 °C) -1.88 ± 0.092.

With CUAAAGCAAUAUUACGCCUU, the “self-splicing fitness (ln)” value by setting is: (30 °C) -3.79 ± 0.26; (37 °C) -1.25 ± 0.22.

In the case of GGCGAGCAAUAUUACGUAUC, the “self-splicing fitness (ln)” value by setting is: (30 °C) -1.61 ± 0.14; (37 °C) -0.00113 ± 0.13.

In the case of AAUAAGCAAUAUUACGCAGG, the “self-splicing fitness (ln)” value (30 °C) is -1.85 ± 0.14 and the “self-splicing fitness (ln)” value (37 °C) is -2.12 ± 0.15.

For GGAUAGCAAUAUUACGCUAA, the “self-splicing fitness (ln)” value runs as follows: (30 °C) -2.07 ± 0.16; (37 °C) -1.03 ± 0.22.

UGAGAGCAAUAUUACGCCAA: under “37 °C”, the “self-splicing fitness (ln)” value is -1.98 ± 0.37.

For the sequence AUACAGCAAUAUUACGGUGU, the “self-splicing fitness (ln)” value runs as follows: (30 °C) -3.8 ± 0.2; (37 °C) -2.18 ± 0.13.

For UAAGAGCAAUAUUACGGUUU, the “self-splicing fitness (ln)” value (30 °C) was -3.48 ± 0.24 and the “self-splicing fitness (ln)” value (37 °C) is -1.85 ± 0.23.

GACCAGCAAUAUUACGUCCC: the “self-splicing fitness (ln)” value reads like this: (30 °C) -0.756 ± 0.12; (37 °C) -0.522 ± 0.13.

On to UUAAAGCAAUAUUACGUAAU, for which the “self-splicing fitness (ln)” value runs as follows: (30 °C) -2.43 ± 0.12; (37 °C) -1.91 ± 0.14.

For UCUCAGCAAUAUUACGCUGA, the “self-splicing fitness (ln)” value runs as follows: (30 °C) -2.7 ± 0.25; (37 °C) -3.19 ± 0.4.

With ACCAAGCAAUAUUACGCGGG, the “self-splicing fitness (ln)” value was -3.38 ± 0.11 (30 °C) and -2.18 ± 0.1 (37 °C).

For the sequence UUAAAGCAAUAUUACGCUCC, the “self-splicing fitness (ln)” value runs as follows: (30 °C) -1.79 ± 0.19; (37 °C) -1.08 ± 0.24.

In the case of CAAUAGCAAUAUUACGAAAG, the “self-splicing fitness (ln)” value (30 °C) was -1.47 ± 0.082 and the “self-splicing fitness (ln)” value (37 °C) was -0.294 ± 0.13.

With AUGCAGCAAUAUUACGGCUU, the “self-splicing fitness (ln)” value (30 °C) is -0.164 ± 0.072 and the “self-splicing fitness (ln)” value (37 °C) stood at 0.254 ± 0.085.

As for GUCAAGCAAUAUUACGACAU, the “self-splicing fitness (ln)” value is -1.673 ± 0.012 (30 °C) and -0.579 ± 0.032 (37 °C).

Turning to AGUUAGCAAUAUUACGGCUA, the “self-splicing fitness (ln)” value reads like this: (30 °C) -0.379 ± 0.11; (37 °C) -0.127 ± 0.11.

Regarding UGAAAGCAAUAUUACGGAUG, the “self-splicing fitness (ln)” value is -1.05 ± 0.09 (30 °C) and -0.581 ± 0.11 (37 °C).

Take UACAAGCAAUAUUACGACAG: the “self-splicing fitness (ln)” value is -1.15 ± 0.092 (30 °C) and -0.241 ± 0.11 (37 °C).

With GAUGAGCAAUAUUACGCGAG, the “self-splicing fitness (ln)” value (30 °C) is -0.593 ± 0.16 and the “self-splicing fitness (ln)” value (37 °C) was -0.578 ± 0.2.

In the case of AUGUAGCAAUAUUACGCAGC, the “self-splicing fitness (ln)” value runs as follows: (30 °C) -2.64 ± 0.37; (37 °C) -0.433 ± 0.17.

Regarding UGGGAGCAAUAUUACGUCAG, the “self-splicing fitness (ln)” value (30 °C) was -2.87 ± 0.23 and the “self-splicing fitness (ln)” value (37 °C) was -1.5 ± 0.3.

On to GAUGAGCAAUAUUACGUUUC, for which the “self-splicing fitness (ln)” value by setting is: (30 °C) -2.77 ± 0.31; (37 °C) -2.57 ± 0.29.

On to ACAGAGCAAUAUUACGUCAA, for which the “self-splicing fitness (ln)” value was -2.04 ± 0.21 (30 °C) and -3.16 ± 0.3 (37 °C).

In the case of UGCUAGCAAUAUUACGGGAG, the “self-splicing fitness (ln)” value is -2.68 ± 0.17 (30 °C) and -1.65 ± 0.13 (37 °C).

In the case of ACAAAGCAAUAUUACGUUGA, the “self-splicing fitness (ln)” value (30 °C) was -1.49 ± 0.079 and the “self-splicing fitness (ln)” value (37 °C) is -1.24 ± 0.089.

Regarding CUUAAGCAAUAUUACGGCAG, the “self-splicing fitness (ln)” value is -0.565 ± 0.099 (30 °C) and -0.3 ± 0.12 (37 °C).

On to ACUUAGCAAUAUUACGGUGG, for which the “self-splicing fitness (ln)” value (30 °C) was -3.72 ± 0.3.

For the sequence GGAUAGCAAUAUUACGUACG, the “self-splicing fitness (ln)” value reads like this: (30 °C) -0.84 ± 0.21; (37 °C) -0.97 ± 0.25.
